# Measurements taken from the supplement of paper PMC12764529.
# ± gives the half width of the 95% confidence interval.
# Assay: folding stability dG unfold (combined trypsin and chymotrypsin); higher = more stable
# In short: (§1)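 Digests were run with trypsin and chymotrypsin at 11 concentrations in threefold dilutions, plus a no-protease condition, on designed mini-proteins in a PA-tagged cDNA display construct. The mini-proteins were under 80 residues, had no cysteine, and were kept only when AlphaFold2 dimer inter-PAE was above 15. After sequencing, Bayesian fitting of the counts gave K50, from which unfolding free energy was derived against a sequence-predicted unfolded-state K50 and a shared folded-state K50, per protease or combined.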
row,Sequence,folding stability dG unfold [kcal/mol]
1,SAGGSAGGSAGMTPGPAPRPKVTVEPSLSEVPEDDSIVTTTTVTFPDTGETTSSTTTSSASAGGSAGGSAGG [r17_31_JUSTAS],1 ± 0.084
2,SAGGSAGGLHPDEEFVVLFRIDVRARPVSPNAHPELKKKFPNAVIVEAKIDVLILPKEKVKELFSAGGSAGG [r6_830_TrMRF],3.18 ± 0.19
3,SAGGSFIKITTKLPNRKIEIPIPDAEIEVEGNTVTITFPPGNAEEVKKAVLEASDEVEITEVKIIDESAGGS [r8_490_JUSTAS],0.557 ± 0.087
4,SAGKIEVKKNYVVIEIKVEGKELKLVIKVKTKEEQEKALELVKKLEEELKKEGLEVEVKVEVFKEGEEVSAG [r5_823_TrROS_Hall],2.8 ± 0.23
5,SAGGSAGGSAGGKMKPVTIYIKNKDGSTAKLKVINGKVEITFPNGEKKTISAKDLKIYKSAGGSAGGSAGGS [r10_1176_TrROS_Hall],1.22 ± 0.17
6,SAGGSAMSLEELKGHLVRLTLPDGRVVVAPVKEMDEEAPVLVIEFGGKPILIPKDAPVKLEVLPPGSAGGSA [r15_355_TrMRF],0.759 ± 0.062
7,SAGGSAGGSAGMVIVDPERGYIYIPFPEDIEPEEFIEANKIPEFDIEVLEIGENIPVIKLSAGGSAGGSAGG [r17_323_TrMRF],0.209 ± 0.096
8,SAGGSAGGSAGKEYYVVAKVEDPSTGKVTVYVGPFSDFVKTFDPKNSKVEFFLVEKDALKSAGGSAGGSAGG [r11_334_TrMRF],2.89 ± 0.077
9,SAGGSAGGSAKMVIVNITLKNKDGKEFTISIEADPSVIKNIIKKLFNAKINKIEIYPLSEALSAGGSAGGSA [r18_107_TrMRF],2.28 ± 0.15

# Assay: folding stability dG unfold from chymotrypsin proteolysis; higher = more stable
# In short: as §1
row,Sequence,folding stability dG unfold [kcal/mol]
1,SAGGSAGGSAGGLVLRGPNDSLLFVLYNPDTGLAVFYNPATNQLLVVNLPLPKPKPSELLSAGGSAGGSAGG [r7_383_TrMRF],2.81 ± 0.049
2,SAGGSAGGSAGRRLVLEFDDESLAVPAAEFLERVLGLELVSIERVPDGERERVLVVLDFPSAGGSAGGSAGG [r11_232_TrMRF],2.45 ± 0.05
3,SAGGKMSLEDIKEVKITKISEEELKKNGTIKIEIYNKNGKLIKTIEIKIKPVKVKDKDGKEKTLEELKSAGG [r13_864_TrROS_Hall],1.49 ± 0.031
4,SAGGSAGGPYYIMVDIEMYNPQDGKERNFTLMIPVPPGDLPKIKEELLSAGFPIKIKNISIMPPSAGGSAGG [r6_151_TrROS],2.88 ± 0.062
5,SAGGSAGGSWIILIHWPNGKEIPIFFKSPEEANEIAEEIKKIFQEKGMEPVSVEIYPIKPGQMSAGGSAGGS [r12_301_TrROS],2.26 ± 0.071
6,SAGWYIKIKIEYPGDGQKKLEVPIPIPSPEEAKEFADEIADMLAEQNGGNIKIEVEVFRLPPVPPEDQGSAG [r5_87_TrROS],2.2 ± 0.15
7,SAGMKEVTVSKDELEEILKKLPPNKTYKVTLYNPNGPTYEFTVTVENDTIKINEGPPNKSENLKVTLVSSAG [r5_85_JUSTAS],2.32 ± 0.024
8,SAGGSSSLAIITIKPKEIKSYYNPNNPVVVSEMEFEVDITIYSDNEISPEKVKELIEEIEKAFPGIKSAGGS [r8_306_TrMRF],2.88 ± 0.11
9,SAGGSAGGSAGMTPGPAPRPKVTVEPSLSEVPEDDSIVTTTTVTFPDTGETTSSTTTSSASAGGSAGGSAGG [r17_31_JUSTAS],1.24 ± 0.051
10,SAGGSAGGLHPDEEFVVLFRIDVRARPVSPNAHPELKKKFPNAVIVEAKIDVLILPKEKVKELFSAGGSAGG [r6_830_TrMRF],3.44 ± 0.082
11,SAGGSFIKITTKLPNRKIEIPIPDAEIEVEGNTVTITFPPGNAEEVKKAVLEASDEVEITEVKIIDESAGGS [r8_490_JUSTAS],0.871 ± 0.026
12,SAGKIEVKKNYVVIEIKVEGKELKLVIKVKTKEEQEKALELVKKLEEELKKEGLEVEVKVEVFKEGEEVSAG [r5_823_TrROS_Hall],3 ± 0.16
13,SAGGSAGGSAGGKMKPVTIYIKNKDGSTAKLKVINGKVEITFPNGEKKTISAKDLKIYKSAGGSAGGSAGGS [r10_1176_TrROS_Hall],1.49 ± 0.13
14,SAGGSAMSLEELKGHLVRLTLPDGRVVVAPVKEMDEEAPVLVIEFGGKPILIPKDAPVKLEVLPPGSAGGSA [r15_355_TrMRF],0.581 ± 0.052
15,SAGGSAGGSAGMVIVDPERGYIYIPFPEDIEPEEFIEANKIPEFDIEVLEIGENIPVIKLSAGGSAGGSAGG [r17_323_TrMRF],-0.0485 ± 0.12
16,SAGGSAGGSAGKEYYVVAKVEDPSTGKVTVYVGPFSDFVKTFDPKNSKVEFFLVEKDALKSAGGSAGGSAGG [r11_334_TrMRF],3.31 ± 0.044
17,SAGGSAGGSAKMVIVNITLKNKDGKEFTISIEADPSVIKNIIKKLFNAKINKIEIYPLSEALSAGGSAGGSA [r18_107_TrMRF],2.21 ± 0.08
